Laboratory results: patent US20070141066A1, “Method for Diagnosing, Prognosing and Treating Glioma” (Genentech, Inc., priority 2005, published 2007)

System: neural stem cell lines derived from fetal human brain
Experiment: Expression signature (35 signature genes) of neural stem cell lines after BDNF treatment and withdrawal
Type: cell-based
Details: two neural stem cell lines
Method: Signal intensity values from Microarray Analysis Suite version were utilized with a scaling factor of 500 for all analysis of microarray data. K-means clustering and agglomerative clustering were performed with the use of Spotfire Decision Site software version 7.3 using Pearson correlation as the similarity measure. For each gene, data was normalized into Z scores prior to clustering. The 35 signature genes used for tumor classification represent the most robust markers for each of three tumor subsets in the MDA survival sample set. Markers of each subset are identified as follows: Each of the 76 samples is assigned to one of three groups based on k-means clustering of expression of the 108 genes most strongly correlated with survival. Using a p value cutoff of 1×10^−4, t tests were utilized to identify all genes whose expression differed between samples in each subclass compared to tumors of other subclasses (see Table A, GDM). For each comparison, we then rank-ordered the 500 probe sets with the smallest p values, by fold change. […] The final 35 signature genes contain 15 PN, 15 Mes, and 5 Prolif markers. […] For statistical comparisons of data presented in FIG. 4 F-I and FIG. 7, log-transformed data was analyzed via t tests corrected for multiple group comparisons. […]

B1: BDNF: the neurotrophic factor BDNF (protein, UniProt P23560 19-247, looked up)
Neurotrophic factor BDNF …: APMKEANIRGQGGLAYPGVRTHGTLESVNGPKAGSRGLTSLADTFEHVIEELLDEDQKVRPNEENNKDADLYTSRVMLSSQVPLEPPLLFLLEEYKNYLDAANMSMRVRRHSDPARRGELSVCDSISEWVTAADKKTAVDMSGGTVTVLEKVPVSKGQLKQYFYETKCNPMGYTKEGCRGIDKRHWNSQCRTTQSYVRALTMDSKKRIGWRFIRIDTSCVCTLTIKRGR
shift of expression signature subclass: shifted signature subclass from the PN to the Mes class
